Source: the DeepSol protein solubility set

Assay: soluble on expression in E. coli; label from the status in PepcDB or PDB records
In the case of “SNRIYTLFLQRNPDFKGGVSIAGHSLGSLILFDILTNQKDSLGDIDSEKDSLNIVMDQGDTPTLEEDLKKLQLSEFFDIFEKEKVDKEALALCTDRDLQEIGIPLGPRKKILNYFSTRKNSMGIKRPAPQPASGANIPKESEFCSSSNTRNGDYLDVGIGQVSVKYPRLIYKPEIFFAFGSPIGMFLTVRGLKRIDPNYRFPTCKGFFNIYHPFDPVAYRIEPMVVPGVEFEPMLIPHHKGRKRMHLELREGLTRMSMDLKNNLLGSLRMAWKSFTRAPYPALQASETPEETEAEPESTSEKPSDVNTEETSVAVKEEVLPINVGMLNGGQRIDYVLQEKPIESFNEYLFALQSHLCYWESEDTVLLVLKEIYQTQGIFLDQPLQ”, the “soluble on expression in E. coli” value is reported as “soluble”. In the case of “MEQEQRGMAALLSKFRIDYSDVYVIADIGKKPRQETMNTWQSVIDPFIAQDGSCPIGMTTKSELSAQRDKTYRQLRAGELLNEHSINADLIVMTLPVPRKGMVSSSLYMSWLEVMTRNLPPVLLVRGNQQSVNTSSSSTASSPHHLIIPALAINPHLKVFPSHISLKCFFFFRFLLKAYAAAVHPPSRFLCYMKKVTDSIFVSLMNNSRLYCLL”, the “soluble on expression in E. coli” value is reported as “not soluble”. In the case of “MKIVRASRDQSAPVYGPRAGSQCMSNCFTFLHTCYLMGIDPVLDTTSLDAVLDSGARLDAIADEKVKRQALTDHPYRLGTEIPTVIETPAGITGHALSRPFNGTAETQDLGGYKCLGILDFLTYARGKPLPVYIIVTVGVHTRGVIVARGATYVFDPHTTDLSAEAAVYVCDDFTEAISALSFFTEMIGDFYYDAVLVYFTRCRTTLISPSELLVQIMDQYKDPDIDASVMS”, the “soluble on expression in E. coli” value is reported as “soluble”. In the case of “MSLLDIERVREQQRPLPISKIRAQQSHTSFQGVFEEIAGHKSEKTVYAILETLEKDGERLAKHRTAAELHAFKRSVRQCVSHLLESLKVETASSAASGQVRQYKLVKEIDKGLVELTNAVFDQSKSELDLLNKIGELQGLIIQLYLEGHHHHHH”, the “soluble on expression in E. coli” value is reported as “soluble”. With “MSMKQAEFIQAKGYQARVTRTARAKTASIKVEEGMVSVVVPKALPIERIERILQEKHQWIIDKIALHKGLITSSEKQFVSGEAMPYLGRNYRLKVHAGSFEPVKLVQGRLVVIVPEGSVRSNLVREALIGWYKRSALLKLREKVRRYAKVIGVTPKSVNIKTFKSRWGSCNPKGDLDFNWIIVMAPNRIVDYVVVHELCHLKQLDHSPLFWKEVERVMPDYAECKEWLKNNAPKLTFLEHHHHHH” the “soluble on expression in E. coli” value was “soluble”. In the case of “MAHRAFIQVIITGTQVFGKAFAEAYRQAASQSVKQGATNASRRGTGKGEYGGITLDESCKILNIEESKGDLNMDKINNRFNYLFEVNDKEKGGSFYLQSKVYRAAERLKWELAQREKNAKAKAGDASTAKPPPNSTNSSGADNSASSNQ”, the “soluble on expression in E. coli” value is reported as “not soluble”. For “LQERELAKAAQEAEKKGEAFPDVPVTLYEAIVRDYTGRTPEAREQTLIVTHLNEDRRVLNSMIQDALAKPGEQQVTVPVLTTANIRDGELRRLSTWEAHPGALALVDNVYHRIAGISKEDGLITLEDKAGNTRLISPREAAAEGVTLYNPETIRVGAGDRMRFTKSDRERGYVANSVWTVTAVSGDSVTLSDGKQTRVVRPGQDRAEQHIDLAYAITAHSAQGASETFAIALEGTEGGRKQMAGFESAYVALSRMKQHVQVYTDDRQGWVKAINSAEQKGTAHDVLEPKSEREMMNAERLFSTARELRDVAAGRAVLRNAGLAQGDSRARFIAPGRKYPQPYVALPAFDRNGKSAGIWLNPLTTDDGAGLRGFTGEGRVKGSEEAQFVALQGSRNGESLLAGSMQDGVRIARENPDSGVVVRIVGDGRPWNPVAITGGRVWGDIPDSNVQPGAGNGEPVTAEILAQRQAEEAVRRETERRADEIVRKMAEDKSDLPEEKTAQAVREIAGQEQDRMTPPEREPPLPESVLREPQRER”, the “soluble on expression in E. coli” value was “not soluble”. For “MEQAPPDPEKLLQPGPLEPLGGPGAVLEAAVGEENEGTREDGSGVDTMTGNNFWLKKIEISVSEAEKRTGRNAVNMQETYTAYLIETRSVEHADGQSVLTDSLWRRYSEFELLRNYLLVYYPHVVVPPLPEKRAEFVWHKLSADNMDPDFVERRRVGLENFLLRVASHPVLCRDKIFYSFLTQEGNWKETVNETGFQLKADSRLKALNATFRVKNPDKRFTELRHYSDELQSVISHLLRVRARVADRLYGVYKVHGNYGRVFSEWSAIEKEMGDGLQSAGHHMDVYASSIDDILEDEEHYADQLKEYLFYAEALRAVCRKHELMQYDLETAAQDLAAKKQQCEELATGTVRTFSLKGMTTKLFGQETPEQREARIKVLEEQINEGEQQLKSKNLEGREFVKNAWADIERFKEQKNRDLKEALISYAVMQISMCKKGIQVWTNAKECFSKM”, the “soluble on expression in E. coli” value was “soluble”. For “MAHHHHHHMHSAALRRREEAAKSLAELEPEYAQIVADLPALEARKAAAEKEQEALWAELGMKQDESEAGLYESEFSDEATSCIRWCETGGCIGTGPRESHRDKSCSNVIDRDSSGYCECKTNDKKDEPEDDEEDVEPEAEGEGTEVRRGTVTYRFSSGHPRFTCMYVCDHSGEAGVDQQPEKLESFTILGELREASKSLERKKNRLEEVKGAMEAAKKLLSSPTITTEDLLRTLEKEEFTIDFQEYTYAIVMFDTVYQRDMGMTTGGNLLGLWKSFAENTYSVWAKDAHDLTQMIYDNGLKCWNGVVRNVEVHLVCGPENKLMTVEEPSMCNYRMVFETPAMCDD”, the “soluble on expression in E. coli” value was “soluble”. With “MDRLDRKILRILQEDSTLAVADLAKKVGLSTTPCWRRIQKMEEDGVIRRRVALLDPVKVNTKVTVFVSIRTASHSIEWLKRFSEVVSEFPEVVEFYRMSGDVDYLLRVVVPDIAAYDAFYKRMIAKIEIRDVSSAFAMEQIKYTTELPLDYMLLDNPKSGEE” the “soluble on expression in E. coli” value was “soluble”. For “MAKSYDYQSAFDIIGPVMMGPSSSHTAGAVKIGNSARAILGDIPKNIEIHYYESFAQTHQGHGTDVAIVGGAMGYSTFDNRIKSSLEIAADDGIKIDIIEEEGDSIGQHPNCAYIKSSRNDGRYIEIIGISIGGGTIKIKGIHINGLEVDLNHGLPILVVDGNMTKAQVNHFINDINDMKLDCKDEFIKIDEDKCLVVIPLNKAISESTLNTIKEKYSDVNVSYIN”, the “soluble on expression in E. coli” value was “not soluble”. With “MAHHHHHHMCTTNLENLVVDSVTRTGNNNASNTFLGDVLLASNKESQNITQYHPGVSSKDQPDVCGDVRYSFADIADIIRGTDVWSKQSQQMLLQGYLEQTFGKIKDKFKGTEKYDSDSHHPQIL” the “soluble on expression in E. coli” value was “not soluble”. For “MEDEHSRQAYVDQLGLLEEGADEVFEEILAAATSYFQTPIALISILDHQRQWFRASIGLDIRQTPRRDSFCAYAILGKGVFEVADATLDPRFRDNPYVQGEPRIRFYAGAPLATAEGLNLGSLCVIDREPRGPLAERDVAMLEHFARLVMARIHTLRSTNYIDEPTGLYNRLRLQEDVSLRLQRDGALTVIAADLLPLALLNTIIRTLGYPFSNDLMLEARDRIRAELPDFTLYKISPTRFGLLLPRQQQEETESVCLRLLRAFESPVVCRGIPIKANVGLGVLPLADDTLDGDQDWLRLVVSAADDARDRGVGWARYNPPLDQAQQRAFTLLTSLSQAIGTEEGFHLVYQPKIDLPTGRCTGVEALLRWRHPQLGFVSPAEFVPLAEKTALMRPLSDWVLRHAMAQLAQWNARNIPLRLAINVSASDMEDSSFLEEAVRLAKTYDIDLSALELEFTESVLIRDASAVGSVLLRARELGMGIAVDDFGTGYSNWTYLRDLPITAIKLDQSFTRDLAGSPKAQSVTQAVIGLASQLGYRVVAEGIETHDTFHLLQAWGCHEGQGYLIAQPMLPEQLEDWLRRLEHHHHHH”, the “soluble on expression in E. coli” value was “not soluble”. In the case of “MNDYTQQLQGKKDYLKTLFAGLDVPEWEVYESPDKHYRMRAEFRIWHEGGEMFYAMFEKGQKASGASMIRCDRFEAASEAVNRLMPELIAAAAQSPELKKRWYAVEFLSTLSGEMLVTMIYHKRLDAEWMQAAQALQQQLDISVIGRSRGQKIVLKQDYVTETLKVGNRDFRYRQIEGS”, the “soluble on expression in E. coli” value is reported as “not soluble”. For “MSVSKKLFSTAVRGKSWWSHVEMGPPDAILGVTEAFKADSNPKKINLGVGAYRDDQGKPFVLPSVKEAERQVIAANLDKEYAGIVGLPEFTKLSAQLALGENSDVIKNKRIFTTQSISGTGALRIGSEFLSKYAKTKVIYQPTPTWGNHVPIFKFAGVDVKQYRYYDKSTCGFDETGALADIAQIPEGSTILLHACAHNPTGVDPSRDQWKKISDIVKKRNLFVFFDMAYQGFASGDVDNDAFAVRYFVEQGHNIVLSQSFAKNMGLYGERVGAFSVVTSDADEAARVASQVKILIRPLYSNPPVHGARIASRILADPALNKQWLGDVKLMADRIITMRTTLKDLLAKEGSTRNWEHITNQIGMFCFTGINPQQVEKLIKEHSVYLTKDGRISVAGISSNNVAYLAHALHQVTK”, the “soluble on expression in E. coli” value was “not soluble”. With “MKSTSMNTNKRFQNVNQWKLHASAAAYLAGWKVVRLLPEPVAYRLFSWAAVIASRRGRGMDQLRRNLTRVVGAESVDRALVKRSMQSYARYWCEAFRLSVIARDPDVIHRVDAHAVGVEQVNPHSPMIIVLPHSGNWDLIGMYFVKKVGTFTTVAERVKPESLFRAFVNYRRSLGFEVLPLTGSETSPYSVLLQRVREGRTVCLLGERDLTSHGVEVEFFGETTRMPAGAVKLALDSGAPLHVAHTWFEGDDWGLSLSEPVEITDVKSGVQAIAQIMEKNIKAHPQDWHLLQPLWINDLDRRRYESGLQPKND” the “soluble on expression in E. coli” value was “not soluble”. With “MSLSSDSQEIRRSILSKWHKTLSKYGNLFSSDTISGTSPPSVFVGSYNYPKVFVGPMVPPIHGDTSLLDSPEKWKGRSLEEIINFRLNLVRGIHKTGIEHTEGRYIENLQEITMSEKPTDLDLVFMKNTSSNISMDGESAPFGPTGEIKSAKFSGSSSTKPIEKIFYDKDMKAQDAVLKLYNSGIEISKIQKCFSIGMLGKKRKLVPTKWSITATDDIISKSIVKEILENSIIDTCKVFSYEHLGNVFSVILFPHRWIFEMIEGWYSNGILGFGSDSEDARGIDHPPRIAGAYFAAKLGVSEYLLKNKIQAGVLIFREIRPEYAIPVGVWQVREGIREAMKQKPQIVSDFNHALNLASAKTSVSKKEWIVNGDMINRVRQKTILDFMEGHHHHHH” the “soluble on expression in E. coli” value was “not soluble”. In the case of “MFQIGEHNMILIYKLTLTKLTEDELKKDFATIPSWATHLDLSNNRLGETSNEELIRVFAKIPGWISHIKLRFNNLGQKNGKDLAKAFAKIPISVTTLDLGSNQLGKKSGEELANAFAGIPTSVTRLILSQNELYKRTGGELATAFAKIPSSVTHLVLVNNGLGEKNGKELATAFANIPSSVTTLDLALNDLSKIKSTELAVIFTKIPTSVTQLDLSHNNLNKKSGKNLAKIFANIPTSVTNLNLSCNELGKKSGKGLAAAFAKIPTSVTDLNIEDNDLDNRTGKELAMAFAHIPAFVNTLRLGDNNLGNKSGEELAEIFAKIPLSVTSLDLRYNELGKRNGKELAIAFAKIPSSVTNLNLKFNHLGKITGEELAMAFANIPTNVDSLVLANNELGAKSGEELAKIFSKIPASITSLNMGNDWFAVIEKLSQQKMVLSTITHVVIDYSSAQEHSAKLKLLATVFPNLNKVTFMDIHGNNALAGQNPIEEAKWLKLCGIKNSVPSLLSQALFFVAKNKEHRSIQDYPSLLPKELTDSISSLLKC”, the “soluble on expression in E. coli” value is reported as “not soluble”. With “MSLACGEFSLIARYFDRVRSSRLDVETGIGDDCALLNIPEKQTLAISTDTLVAGNHFLPDIDPADLAYKALAVNLSDLAAMGADPAWLTLALTLPEVDEPWLEAFSDSLFALLNYYDMQLIGGDTTRGPLSMTLGIHGYIPAGRALKRSGAKPGDWIYVTGTPGDSAAGLAVLQNRLQVSEETDAHYLIQRHLRPTPRILHGQALRDIASAAIDLSDGLISDLGHIVKASGCGARVDVDALPKSDAMMRHVDDGQALRWALSGGEDYELCFTVPELNRGALDVAIGQLGVPFTCIGQMSADIEGLNFVRDGMPVTFDWKGYDHFATPEGGSHHHHHH” the “soluble on expression in E. coli” value was “soluble”.
